The text below walks through data of US7169889B1, “Insulin prodrugs hydrolyzable in vivo to yield peglylated insulin” (priority 1999, dated 2007).

Data set [1] concerns male CF-1 mice. As to the kind of experiment: Mouse blood glucose assay (potency evaluation). It is filed as in vivo. The settings on record: for Potency: subcutaneous injection, blood glucose 30 minutes post-dose, calculated relative to bovine insulin standard curve. The protocol: Six paired dose groups of 5 male CF-1 mice (˜25 g unfasted) received subcutaneous injections of either bovine insulin or modified insulin. Pre- and post-experimental baselines were established with two vehicle groups. An additional 25 μg/kg insulin dose group served as the internal control. Mice were terminally bled 30 minutes post-dose and blood glucose was measured with a glucometer (ONE TOUCH®). The biological potency of the modified insulin was then calculated relative to a bovine insulin standard curve.

For data set [2], the system named is male CF-1 mice. Particulars: bovine insulin standard; assumed potency used for calculations; cited from earlier work.
The next data set concerns pancreatectomized dogs. As to the kind of experiment: Oral activity in pancreatectomized diabetic dogs (plasma glucose and insulin). The class given is in vivo. Particulars: for Dmax: microemulsion, N = 2. The procedure:
Two dogs were used for each compound. Compounds are formulated in water in oil microemulsion and evaluated at a dose of 1-2 mg/kg. Twenty milliliters of the formulation was administered orally to each dog and the formulations were chased with 20 ml of water. Plasma glucose and insulin levels were monitored at different time intervals.

Where two headings read alike, the source gives them in different places.

“Insulin PEG9 Oleate: insulin mono-conjugated with hydrolyzable PEG9 oleate ester oligomer”: in the data set on male CF-1 mice [1], the Potency is 19.0 IU/mg.

Turning to “Bovine insulin: bovine insulin standard, assumed potency 27.5 IU/mg”, the Potency with male CF-1 mice [2] is reported as 27.5 IU/mg.

“PEG3-oleate-insulin conjugate: insulin conjugated with hydrolyzable triethylene glycol oleate oligomer, in microemulsion”: the Dmax with pancreatectomized dogs (oral, dose 1 mg/kg) was determined as 49%.

For “Insulin PEG10 Oleyl Ether: nonhydrolyzable insulin mono-conjugate with PEG10 oleyl ether oligomer”, the Potency with male CF-1 mice [1] is on record as 0.0 IU/mg.

In turn, “PEG3-insulin: methyl triethylene glycol insulin conjugates formulated in microemulsion” displayed a Cmax with pancreatectomized dogs (dog, in vivo, po, 2 mg/kg) of 181 μU/ml. The “glucose reduction, in words” value with pancreatectomized dogs (oral, formulated in microemulsion, pancreatectomized dogs) was “good glucose reduction”. In addition, the Dmax in the data set with pancreatectomized dogs (oral, dose 2 mg/kg) is 62%.

As to “Insulin PEG9 Stearate: insulin mono-conjugated with hydrolyzable PEG9 stearate ester oligomer”, the Potency in the data set on male CF-1 mice [1] is 15.3 IU/mg.

Regarding “Insulin PEG3 Methyl Ether: insulin mono-conjugated with methyl triethylene glycol”, in the data set on male CF-1 mice [1] (mouse blood glucose assay, Table 2), the “in vivo biological activity (potency assay), in words” value is “best result”. The Potency in the data set with male CF-1 mice [1] is 43.6 IU/mg.

Turning to “Insulin PEG9 Hexanoate: insulin mono-conjugated with hydrolyzable PEG9 hexanoate ester oligomer”, in the data set on male CF-1 mice [1], the Potency was 21.3 IU/mg.

Consider Galactosamine-PEG14-insulin conjugate, for which, in the data set on pancreatectomized dogs (oral, dose 2 mg/kg), the Dmax was 52%.
